In publication PMC8945615:

Target: soluble human fibrin (human) (UniProt P02679)
Experiment: SPR

UniProt P02679, sequence (P02679 whole entry, looked up, tested part not stated): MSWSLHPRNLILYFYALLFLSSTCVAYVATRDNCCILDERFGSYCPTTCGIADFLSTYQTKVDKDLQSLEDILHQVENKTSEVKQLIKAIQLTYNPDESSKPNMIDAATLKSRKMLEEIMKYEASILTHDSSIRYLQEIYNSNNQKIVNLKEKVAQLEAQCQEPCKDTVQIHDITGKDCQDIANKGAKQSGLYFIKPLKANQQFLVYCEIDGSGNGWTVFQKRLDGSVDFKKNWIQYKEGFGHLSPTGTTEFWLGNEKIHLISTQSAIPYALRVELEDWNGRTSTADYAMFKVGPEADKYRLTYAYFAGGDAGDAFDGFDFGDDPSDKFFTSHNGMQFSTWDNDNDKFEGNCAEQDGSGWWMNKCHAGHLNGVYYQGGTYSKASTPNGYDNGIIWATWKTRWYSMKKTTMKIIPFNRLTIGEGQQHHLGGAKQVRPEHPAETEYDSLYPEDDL

## full-length, purified αIIbβ3 (from UniProt P08514 32-1039; P05106 27-788) (receptor)
  KD2 (heterogeneous ligand model): 3.79e-07
  KD2 (heterogeneous ligand model, primed with PT25-2): 1.37e-07
  Kd1 (heterogeneous ligand model): 1.47e-07
  Kd1 (heterogeneous ligand model, primed with PT25-2): 4.78e-08
  fold increase of ka1 on priming with PT25-2 (against unprimed αIIbβ3): 3 fold
  ka1 (heterogeneous ligand model): 13400
  kd1 (heterogeneous ligand model): 0.00196
